Here are results for 61 sequences from the supplement of paper PMC11780869.

The subject of the series is Bacillus subtilis. In words: cleaved RNA product abundance (RNA/gDNA barcode ratio) relative to median wild-type variant (ratio to wild type); higher = more accumulation of the downstream cleavage product. As to conditions: experiment (reporter, strain, medium): exp 8a: truncated aprE reporter, strain BJT201 with 2% xylose (RNase J1 expressed); cleavage site: glnRA (positions -5 to +31 mutated). In a few lines: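 In LB at 37°C, B. subtilis cultures went from OD600 0.0003 to 0.3. Their chromosomes held barcoded reporter mRNAs, truncated aprE or tetM, with RNase Y cleavage-site windows mutagenized via oligos at a 9% error rate. Cleaved RNA, chosen by gel, was reverse transcribed and barcode-sequenced alongside genomic DNA barcodes with UMI collapsing, giving a per-construct RNA:gDNA ratio scaled to the median construct with the unmutated site. This scaled ratio is termed cleaved product abundance.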
Take “CGACATGTCCCGCTTCTTTCATTAATCCGTTAGCAACTGTTTTGCTATATACACTTAACTTTTAAGAGGAGGAAT”: the “cleaved RNA product abundance” value worked out at 0.785.

Regarding “CGACATGTCCCGCTTCTTTCATTAATCCGTTAGCAACTGTTTTGCTATATACACTTACCTTTTAAGAGGAGGAAT”, the “cleaved RNA product abundance” value is 0.964.

For the sequence “CGACATGTCCCGCTTCTTTCATTAATCCGTTAGCAACTGTTTTGCTATATACACTTATCTTTTAAGAGGAGGAAT”, the “cleaved RNA product abundance” value turned out to be 0.672.

“CGACATGTCCCGCTTCTTTCATTAATCCGTTAGCAACTGTTTTGCTATATACAGTTACCTTTTAAGAGGAGGAAT”: the “cleaved RNA product abundance” value turned out to be 0.464.

For the sequence “CGACATGTCCCGCTTCTTTCATTAATCCGTTAGCAACTGTTTTGCTATATACAGTTACGTTTTAAGAGGAGGAAT”, the “cleaved RNA product abundance” value turned out to be 0.192.

“CGACATGTCCCGCTTCTTTCATTAATCCGTTAGCAACTGTTTTGCTATATACATATAACTTTTAAGAGGAGGAAT”: the “cleaved RNA product abundance” value worked out at 1.73.

Regarding “CGACATGTCCCGCTTCTTTCATTAATCCGTTAGCAACTGTTTTGCTATATACATATACATTTTAAGAGGAGGAAT”, the “cleaved RNA product abundance” value amounted to 0.68.

Regarding “CGACATGTCCCGCTTCTTTCATTAATCCGTTAGCAACTGTTTTGCTATATACATATACCATTTAAGAGGAGGAAT”, the “cleaved RNA product abundance” value is 0.971.

“CGACATGTCCCGCTTCTTTCATTAATCCGTTAGCAACTGTTTTGCTATATACATATACCTTTTAAGAGGAGGAAT”: the “cleaved RNA product abundance” value was 1.04.

As to “CGACATGTCCCGCTTCTTTCATTAATCCGTTAGCAACTGTTTTGCTATATACATATACGTTTTAAGAGGAGGAAT”, the “cleaved RNA product abundance” value amounted to 1.29.

“CGACATGTCCCGCTTCTTTCATTAATCCGTTAGCAACTGTTTTGCTATATACATATACTTTTTAAGAGGAGGAAT”: the “cleaved RNA product abundance” value came to 0.975.

Consider “CGACATGTCCCGCTTCTTTCATTAATCCGTTAGCAACTGTTTTGCTATATACATATATCTTTTAAGAGGAGGAAT”, for which the “cleaved RNA product abundance” value is 1.06.

In the case of “CGACATGTCCCGCTTCTTTCATTAATCCGTTAGCAACTGTTTTGCTATATACATATTCCTTTTAAGAGGAGGAAT”, the “cleaved RNA product abundance” value is 0.511.

“CGACATGTCCCGCTTCTTTCATTAATCCGTTAGCAACTGTTTTGCTATATACATCTACATTTTAAGAGGAGGAAT”: the “cleaved RNA product abundance” value came to 1.27.

Consider “CGACATGTCCCGCTTCTTTCATTAATCCGTTAGCAACTGTTTTGCTATATACATCTACCTTTTAAGAGGAGGAAT”, for which the “cleaved RNA product abundance” value stood at 0.867.

Regarding “CGACATGTCCCGCTTCTTTCATTAATCCGTTAGCAACTGTTTTGCTATATACATGTACCTTTTAAGAGGAGGAAT”, the “cleaved RNA product abundance” value came to 0.738.

For “CGACATGTCCCGCTTCTTTCATTAATCCGTTAGCAACTGTTTTGCTATATACATTAACCGTTTAAGAGGAGGAAT”, the “cleaved RNA product abundance” value turned out to be 0.934.

Turning to “CGACATGTCCCGCTTCTTTCATTAATCCGTTAGCAACTGTTTTGCTATATACATTAACCTTTTAAGAGGAGGAAT”, the “cleaved RNA product abundance” value was 1.37.

For “CGACATGTCCCGCTTCTTTCATTAATCCGTTAGCAACTGTTTTGCTATATACATTAACTTTTTAAGAGGAGGAAT”, the “cleaved RNA product abundance” value was found to be 1.71.

For the sequence “CGACATGTCCCGCTTCTTTCATTAATCCGTTAGCAACTGTTTTGCTATATACATTAATCTTTTAAGAGGAGGAAT”, the “cleaved RNA product abundance” value was 1.54.

Consider “CGACATGTCCCGCTTCTTTCATTAATCCGTTAGCAACTGTTTTGCTATATACATTACCCTTTTAAGAGGAGGAAT”, for which the “cleaved RNA product abundance” value was 0.597.

Regarding “CGACATGTCCCGCTTCTTTCATTAATCCGTTAGCAACTGTTTTGCTATATACATTAGCCTTTTAAGAGGAGGAAT”, the “cleaved RNA product abundance” value was found to be 0.519.

Turning to “CGACATGTCCCGCTTCTTTCATTAATCCGTTAGCAACTGTTTTGCTATATACATTCACCTTTTAAGAGGAGGAAT”, the “cleaved RNA product abundance” value came out at 0.581.

In the case of “CGACATGTCCCGCTTCTTTCATTAATCCGTTAGCAACTGTTTTGCTATATACATTGACCATTTAAGAGGAGGAAT”, the “cleaved RNA product abundance” value was 0.525.

Turning to “CGACATGTCCCGCTTCTTTCATTAATCCGTTAGCAACTGTTTTGCTATATACATTGACCTTTTAAGAGGAGGAAT”, the “cleaved RNA product abundance” value came out at 0.989.

Take “CGACATGTCCCGCTTCTTTCATTAATCCGTTAGCAACTGTTTTGCTATATACATTTAACATTTAAGAGGAGGAAT”: the “cleaved RNA product abundance” value worked out at 0.609.

In the case of “CGACATGTCCCGCTTCTTTCATTAATCCGTTAGCAACTGTTTTGCTATATACATTTAACGTTTAAGAGGAGGAAT”, the “cleaved RNA product abundance” value is 1.13.

As for “CGACATGTCCCGCTTCTTTCATTAATCCGTTAGCAACTGTTTTGCTATATACATTTAACTTTTAAGAGGAGGAAT”, the “cleaved RNA product abundance” value turned out to be 1.24.

On to “CGACATGTCCCGCTTCTTTCATTAATCCGTTAGCAACTGTTTTGCTATATACATTTACAATTTAAGAGGAGGAAT”, for which the “cleaved RNA product abundance” value is 1.08.

With “CGACATGTCCCGCTTCTTTCATTAATCCGTTAGCAACTGTTTTGCTATATACATTTACATTTTAAGAGGAGGAAT”, the “cleaved RNA product abundance” value is 1.39.

As to “CGACATGTCCCGCTTCTTTCATTAATCCGTTAGCAACTGTTTTGCTATATACATTTACCATTTAAGAGGAGGAAT”, the “cleaved RNA product abundance” value worked out at 1.03.

With “CGACATGTCCCGCTTCTTTCATTAATCCGTTAGCAACTGTTTTGCTATATACATTTACCCTTTAAGAGGAGGAAT”, the “cleaved RNA product abundance” value is 0.763.

As to “CGACATGTCCCGCTTCTTTCATTAATCCGTTAGCAACTGTTTTGCTATATACATTTACCCTTTTAAGAGGAGGAA”, the “cleaved RNA product abundance” value turned out to be 0.756.

In the case of “CGACATGTCCCGCTTCTTTCATTAATCCGTTAGCAACTGTTTTGCTATATACATTTACCGTTTAAGAGGAGGAAT”, the “cleaved RNA product abundance” value came out at 0.948.

As to “CGACATGTCCCGCTTCTTTCATTAATCCGTTAGCAACTGTTTTGCTATATACATTTACGTTTTAAGAGGAGGAAT”, the “cleaved RNA product abundance” value worked out at 1.12.

For the sequence “CGACATGTCCCGCTTCTTTCATTAATCCGTTAGCAACTGTTTTGCTATATACATTTACTTTTTAAGAGGAGGAAT”, the “cleaved RNA product abundance” value is 1.23.

For “CGACATGTCCCGCTTCTTTCATTAATCCGTTAGCAACTGTTTTGCTATATACATTTAGCATTTAAGAGGAGGAAT”, the “cleaved RNA product abundance” value was 0.755.

Regarding “CGACATGTCCCGCTTCTTTCATTAATCCGTTAGCAACTGTTTTGCTATATACATTTAGCTTTTAAGAGGAGGAAT”, the “cleaved RNA product abundance” value came to 1.07.

With “CGACATGTCCCGCTTCTTTCATTAATCCGTTAGCAACTGTTTTGCTATATACATTTAGGTTTTAAGAGGAGGAAT”, the “cleaved RNA product abundance” value came out at 0.86.

As for “CGACATGTCCCGCTTCTTTCATTAATCCGTTAGCAACTGTTTTGCTATATACATTTATCGTTTAAGAGGAGGAAT”, the “cleaved RNA product abundance” value is 0.92.

Take “CGACATGTCCCGCTTCTTTCATTAATCCGTTAGCAACTGTTTTGCTATATACATTTATCTTTTAAGAGGAGGAAT”: the “cleaved RNA product abundance” value was determined as 1.27.

As to “CGACATGTCCCGCTTCTTTCATTAATCCGTTAGCAACTGTTTTGCTATATACATTTATGTTTTAAGAGGAGGAAT”, the “cleaved RNA product abundance” value amounted to 0.888.

“CGACATGTCCCGCTTCTTTCATTAATCCGTTAGCAACTGTTTTGCTATATACATTTATTTTTTAAGAGGAGGAAT”: the “cleaved RNA product abundance” value stood at 2.39.

Take “CGACATGTCCCGCTTCTTTCATTAATCCGTTAGCAACTGTTTTGCTATATACATTTCCCATTTAAGAGGAGGAAT”: the “cleaved RNA product abundance” value amounted to 1.11.

Turning to “CGACATGTCCCGCTTCTTTCATTAATCCGTTAGCAACTGTTTTGCTATATACATTTCCCTTTTAAGAGGAGGAAT”, the “cleaved RNA product abundance” value was found to be 0.531.

“CGACATGTCCCGCTTCTTTCATTAATCCGTTAGCAACTGTTTTGCTATATACATTTCCTTTTTAAGAGGAGGAAT”: the “cleaved RNA product abundance” value is 0.345.

“CGACATGTCCCGCTTCTTTCATTAATCCGTTAGCAACTGTTTTGCTATATACATTTGCCTTTTAAGAGGAGGAAT”: the “cleaved RNA product abundance” value worked out at 0.413.

In the case of “CGACATGTCCCGCTTCTTTCATTAATCCGTTAGCAACTGTTTTGCTATATACATTTTCCTTTTAAGAGGAGGAAT”, the “cleaved RNA product abundance” value amounted to 0.416.

With “CGACATGTCCCGCTTCTTTCATTAATCCGTTAGCAACTGTTTTGCTATATACATTTTCTTTTTAAGAGGAGGAAT”, the “cleaved RNA product abundance” value was determined as 0.842.

Turning to “CGACATGTCCCGCTTCTTTCATTAATCCGTTAGCAACTGTTTTGCTATATACATTTTTCTTTTAAGAGGAGGAAT”, the “cleaved RNA product abundance” value came to 0.479.

Regarding “CGACATGTCCCGCTTCTTTCATTAATCCGTTAGCAACTGTTTTGCTATATACCTTAACCTTTTAAGAGGAGGAAT”, the “cleaved RNA product abundance” value turned out to be 0.281.

Take “CGACATGTCCCGCTTCTTTCATTAATCCGTTAGCAACTGTTTTGCTATATACCTTCACCTTTTAAGAGGAGGAAT”: the “cleaved RNA product abundance” value was 0.276.

On to “CGACATGTCCCGCTTCTTTCATTAATCCGTTAGCAACTGTTTTGCTATATACCTTTACCTTTTAAGAGGAGGAAT”, for which the “cleaved RNA product abundance” value turned out to be 0.283.

Turning to “CGACATGTCCCGCTTCTTTCATTAATCCGTTAGCAACTGTTTTGCTATATACGTTTACCTTTTAAGAGGAGGAAT”, the “cleaved RNA product abundance” value was 0.361.

Consider “CGACATGTCCCGCTTCTTTCATTAATCCGTTAGCAACTGTTTTGCTATATACTTATACCTTTTAAGAGGAGGAAT”, for which the “cleaved RNA product abundance” value was 0.926.

“CGACATGTCCCGCTTCTTTCATTAATCCGTTAGCAACTGTTTTGCTATATACTTTTACCATTTAAGAGGAGGAAT”: the “cleaved RNA product abundance” value was determined as 0.769.

As for “CGACATGTCCCGCTTCTTTCATTAATCCGTTAGCAACTGTTTTGCTATATACTTTTACCTTTTAAGAGGAGGAAT”, the “cleaved RNA product abundance” value turned out to be 0.641.

For the sequence “CGACATGTCCCGCTTCTTTCATTAATCCGTTAGCAACTGTTTTGCTATATAGAATTACCTTTTAAGAGGAGGAAT”, the “cleaved RNA product abundance” value was determined as 1.14.

Turning to “CGACATGTCCCGCTTCTTTCATTAATCCGTTAGCAACTGTTTTGCTATATAGATTTACCCTTTAAGAGGAGGAAT”, the “cleaved RNA product abundance” value was 0.684.

For the sequence “CGACATGTCCCGCTTCTTTCATTAATCCGTTAGCAACTGTTTTGCTATATAGATTTACCTTTTAAGAGGAGGAAT”, the “cleaved RNA product abundance” value came out at 1.11.

As for “CGACATGTCCCGCTTCTTTCATTAATCCGTTAGCAACTGTTTTGCTATATATAATTACCTTTTAAGAGGAGGAAT”, the “cleaved RNA product abundance” value was 0.919.
